Results from publication PMC2612750, “Identification of Pax6-Dependent Gene Regulatory Networks in the Mouse Lens”.

What was measured:
Pax6 GST-PD = Pax6 GST-PD (UniProt P63015 4-130); test: EMSA; EMSA: 0.5-1 ng 5'-end-labelled probe, 2 ug poly(dI-dC), room temperature 10 min, 5% PAGE in 0.5x TBE; competitor 50 ng cold P6CON (~50:1); binding buffer, salt; conditions: protein: recombinant; tags: GST; label: 5'-end label (radioactive)
Pax6 GST-PD/HD = Pax6 GST-PD/HD (UniProt P63015 4-269); test: as above; conditions: protein: recombinant; tags: GST; label: 5'-end label (radioactive)
Sequence of Pax6 GST-PD/HD (P63015 4-269): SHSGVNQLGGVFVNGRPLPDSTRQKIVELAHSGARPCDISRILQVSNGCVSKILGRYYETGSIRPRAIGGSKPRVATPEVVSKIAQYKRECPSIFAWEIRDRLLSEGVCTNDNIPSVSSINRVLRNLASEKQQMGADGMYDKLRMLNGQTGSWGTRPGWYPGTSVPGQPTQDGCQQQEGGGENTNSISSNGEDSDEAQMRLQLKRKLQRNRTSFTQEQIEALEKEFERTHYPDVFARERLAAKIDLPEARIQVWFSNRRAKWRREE

Sequence of Pax6 GST-PD (P63015 4-130): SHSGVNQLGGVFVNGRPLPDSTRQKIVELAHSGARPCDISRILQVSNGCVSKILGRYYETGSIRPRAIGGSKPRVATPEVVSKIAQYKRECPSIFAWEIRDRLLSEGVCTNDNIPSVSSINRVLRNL

B1: P6CON (dsDNA)
DNA 1: GGATGCAATTTCACGCATGAGTGCCTCGAGGGATCCACGTCGA
DNA 2: TCGACGTGGATCCCTCGAGGCACTCATGCGTGAAATTGCATCC
B1: binds (Pax6 GST-PD); binds (Pax6 GST-PD/HD).
